Measurements as given in ChEMBL document CHEMBL1154924, “Carbonic anhydrase activators: Activation of the beta-carbonic anhydrase from the pathogenic yeast Candida glabrata with amines and amino acids” (Bioorg Med Chem Lett, 2010).

Columns and labels:
[1] = substrate: NCCc1c[nH]cn1; settings: Saccharomyces cerevisiae
Description: Activity at Saccharomyces cerevisiae recombinant Nce103p

[2] = substrate: NCCc1c[nH]cn1; settings: Nakaseomyces glabratus
Description: Activity at Candida glabrata recombinant carbonic anhydrase

[3] = substrate: NCCc1c[nH]cn1; settings: Methanothermobacter thermautotrophicus
Description: Activity at archaea Methanobacterium thermoautotrophicum recombinant carbonic anhydrase

B1: Carbonic anhydrase (Saccharomyces cerevisiae S288c), P53615 (protein)
chain: MSATESSSIFTLSHNSNLQDILAANAKWASQMNNIQPTLFPDHNAKGQSPHTLFIGCSDSRYNENCLGVLPGEVFTWKNVANICHSEDLTLKATLEFAIICLKVNKVIICGHTDCGGIKTCLTNQREALPKVNCSHLYKYLDDIDTMYHEESQNLIHLKTQREKSHYLSHCNVKRQFNRIIENPTVQTAVQNGELQVYGLLYNVEDGLLQTVSTYTKVTPK
- Km [1]: 9.5 mM

B2: Carbonic anhydrase (Candida glabrata CBS 138), Q6FTL6 (protein)
chain: MTKDTIFTLTGKCALDNILDANRQWAQAMHRSQPQLFPTNGQGQDPHTLFIGCSDSRYNEDCLGVLPGEIFTLKTVANICHTDDHSLLATLEFAILNLKVNRIILCGHTDCGGIKTCLLGRESIKESCPHLYEHLDDIEDLVESHESELNQLDNICSKSKLMSHRNVERQLQRLLQIPVVQDALRNSNQDHEFNIFGLVYNVDSGLVDVVREVYGNQQK
- Km [2]: 7.9 mM

B3: Carbonic anhydrase (Methanobacterium thermoautotrophicum), Q50565 (protein)
chain: MRFVSMIIKDILRENQDFRFRDLSDLKHSPKLCIITCMDSRLIDLLERALGIGRGDAKVIKNAGNIVDDGVIRSAAVAIYALGVNEIIIVGHTDCGMARLDEDLIVSRMRELGVEEEVIENFSIDVLNPVGDEEENVIEGVKRLKSSPLIPESIGVHGLIIDINTGRLKPLYLDED
- Km [3]: 1.7 mM
